In paper PMC6019534:

Molecular target: MbnN from Methylosinus trichosporium OB3b, tagless (C-terminal His6 tag removed by TEV protease) (Methylosinus trichosporium OB3b)
Experiment: native gel or EMSA

stoichiometry N: 2
Substance: MbnN from Methylosinus trichosporium OB3b, tagless (C-terminal His6 tag removed by TEV protease) (enzyme)
